The text below walks through data of PMC2845083.

This experiment concerns the target 6xHis-hKNL1 fragment (amino acids 1-86), Ser-Asp phospho-mimetic mutations in the SILK and RVSF motifs (human) (UniProt Q8NG31). Nature of the experiment: pull-down.

On to “recombinant hPP1γ (protein phosphatase 1 gamma catalytic subunit) (from UniProt P36873 1-323) (enzyme)”, for which the reduction of binding against wild type is above 70%.
